Reference: US20260167720A1 (Amgen, published 2026)

Experiments:
Experiment in all cases: cell-based or functional assay
[1] = target: T1, CDH3 (Cadherin-3, P-Cadherin) on HCT116 or GSU cells (UniProt P22223 108-829, limits assumed)
[2] = target: T2, MSLN (Mesothelin) on HCT116 or GSU cells (UniProt Q13421 37-598, limits assumed)
[3] = target: T1, CDH3 (Cadherin-3, P-Cadherin) on HCT116 …; remark: listed apart in the source
[4] = target: T2, MSLN (Mesothelin) on HCT116 or GSU cells; remark: listed apart in the source

| EC50 GSU KO MSLN [pM]; TDCC, MSLN knocked out, CDH3 left [1] [pM] | EC50 GSU WT [pM]; TDCC, cells double positive for CDH3 and MSLN [1] [pM] | EC50 GSU KO CDH3 [pM]; TDCC, CDH3 knocked out, MSLN left [2] [pM] | EC50 GSU WT [pM]; TDCC, cells double positive for CDH3 and MSLN [2] [pM] | EC50 HCT116 KO MSLN [pM]; TDCC, MSLN knocked out, CDH3 left [3] [pM] | EC50 HCT116 WT [pM]; TDCC, cells double positive for CDH3 and MSLN [3] [pM] | EC50 HCT116 KO CDH3 [pM]; TDCC, CDH3 knocked out, MSLN left [4] [pM] | EC50 HCT116 WT [pM]; TDCC, cells double positive for CDH3 and MSLN [4] [pM] | Binder |
| --- | --- | --- | --- | --- | --- | --- | --- | --- |
| 36.8 | 0.098 | 2.89 | 0.098 | 0.62 | 0.027 | 3.5 | 0.027 | MSLN-CDH3 T-cell engager molecule 4 (example to FIG. 2B) (bispecific antibody) chain 1: not shown chain 2: EVQLVESGGGLVQPGGSLKLSCAASGFTFNKYAMNWVRQAPGKGMEWVARIRSKYNNYATYYADAVKDRFTISRDDSKNTLYLQMNNLKTEDTAVYYCVRAGNFGSSYISYFAYWGQGTLVTVSSGGGGQGGGGQGGGGQQTVVTQEPSLTVSPGGTVTITCGSSTGAVTSGNYPNWIQKKPGQAPRGLIGGTKFLAPGTPARFSGSLEGGKAALTLSGVQPEDEAEYYCVLYYSNRWVFGSGTKLTVLGGGGQGGGGQGGGGQDKTHTCPPCPAPELLGGPSVFLFPPKPKDTLMISRTPEVTCVVVDVSHEDPEVKFNWYVDGVEVHNAKTKPCEEQYGSTYRCVSVLTVLHQDWLNGKEYKCKVSNKALPAPIEKTISKAKGQPREPQVYTLPPSRKEMTKNQVSLTCLVKGFYPSDIAVEWESNGQPENNYKTTPPVLKSDGSFFLYSKLTVDKSRWQQGNVFSCSVMHEALHNHYTQKSLSLSPGKGGGGQGGGGQGGGGQQVQLQESGPGLVKPSETLSLTCTVSGGSISSSSYFWGWIRQPPGKCLEWIGNIYYSGSSNYNPSLKSRVTISVDTSKNQFSLKLSSVTAADTAVYYCARLPRGDRDAFDIWGQGTMVTVSSGGGGQGGGGQGGGGQEIVMTQSPSSLSASVGDRVTITCRASQGISNYLAWYQQKPGKVPKLLIYAASTLQSGVPSRFSGSGSGTDFTLTISSLQPEDFATYYCQQSYSTPFTFGCGTKVEIK |
| 175 | 0.128 | 10.5 | 0.128 | 2.25 | 0.039 | 8.07 | 0.039 | MSLN-CDH3 T-cell engager molecule 5 (example to FIG. 2D) (bispecific antibody, human IgG1, kappa, N297G) chain 1: not shown chain 2: EVQLVESGGGLVQPGGSLKLSCAASGFTFNKYAMNWVRQAPGKGMEWVARIRSKYNNYATYYADAVKDRFTISRDDSKNTLYLQMNNLKTEDTAVYYCVRAGNFGSSYISYFAYWGQGTLVTVSSGGGGQGGGGQGGGGQQTVVTQEPSLTVSPGGTVTITCGSSTGAVTSGNYPNWIQKKPGQAPRGLIGGTKFLAPGTPARFSGSLEGGKAALTLSGVQPEDEAEYYCVLYYSNRWVFGSGTKLTVLGGGGGDKTHTCPPCPAPELLGGPSVFLFPPKPKDTLMISRTPEVTCVVVDVSHEDPEVKFNWYVDGVEVHNAKTKPCEEQYGSTYRCVSVLTVLHQDWLNGKEYKCKVSNKALPAPIEKTISKAKGQPREPQVYTLPPSRKEMTKNQVSLTCLVKGFYPSDIAVEWESNGQPENNYKTTPPVLKSDGSFFLYSKLTVDKSRWQQGNVFSCSVMHEALHNHYTQKSLSLSPGKGGGGQGGGGQGGGGQQVQLQESGPGLVKPSETLSLTCTVSGGSISSSSYFWGWIRQPPGKCLEWIGNIYYSGSSNYNPSLKSRVTISVDTSKNQFSLKLSSVTAADTAVYYCARLPRGDRDAFDIWGQGTMVTVSSGGGGQGGGGQGGGGQEIVMTQSPSSLSASVGDRVTITCRASQGISNYLAWYQQKPGKVPKLLIYAASTLQSGVPSRFSGSGSGTDFTLTISSLQPEDFATYYCQQSYSTPFTFGCGTKVEIK chain 3: EIQMTQSPSSLSASVGDRVTITCRASQDISNYLNWYQQKPGKVPKLLIYYTSRLHSGVPSRFSGSGSGTDFTLTISSLQPEDVATYYCVQYAQFPLTFGCGTKVEIKRTVAAPSVFIFPPSDEQLKSGTASVVCLLNNFYPREAKVQWKVDNALQSGNSQESVTEQDSKDSTYSLESTLTLSKADYEKHKVYACEVTHQGLSSPVTKSFNRGEC |
| 95 | 0.261 | 54.6 | 0.261 | 1.5 | 0.04 | 25.5 | 0.04 | MSLN-CDH3 T-cell engager molecule 7 (example to FIG. 2K) (bispecific antibody, human IgG1, kappa, lambda, N297G) chain 1: not shown chain 2: EVQLVESGGGLVQPGGSLKLSCAASGFTFNKYAMNWVRQAPGKGMEWVARIRSKYNNYATYYADAVKDRFTISRDDSKNTLYLQMNNLKTEDTAVYYCVRAGNFGSSYISYFAYWGQGTLVTVSSASTKGPSVFPLAPSSKSTSGGTAALGCLVKDYFPEPVTVSWNSGALTSGVHTFPAVLQSSGLYSLESVVTVPSSSLGTQTYICNVNHKPSNTKVDKKVEPKSCDKTHTCPPCPAPELLGGPSVFLFPPKPKDTLMISRTPEVTCVVVDVSHEDPEVKFNWYVDGVEVHNAKTKPCEEQYGSTYRCVSVLTVLHQDWLNGKEYKCKVSNKALPAPIEKTISKAKGQPREPQVYTLPPSRKEMTKNQVSLTCLVKGFYPSDIAVEWESNGQPENNYKTTPPVLKSDGSFFLYSKLTVDKSRWQQGNVFSCSVMHEALHNHYTQKSLSLSPGKGGGGQGGGGQGGGGQQVQLQESGPGLVKPSETLSLTCTVSGGSISSSSYFWGWIRQPPGKCLEWIGNIYYSGSSNYNPSLKSRVTISVDTSKNQFSLKLSSVTAADTAVYYCARLPRGDRDAFDIWGQGTMVTVSSGGGGQGGGGQGGGGQEIVMTQSPSSLSASVGDRVTITCRASQGISNYLAWYQQKPGKVPKLLIYAASTLQSGVPSRFSGSGSGTDFTLTISSLQPEDFATYYCQQSYSTPFTFGCGTKVEIK chain 3: EIQMTQSPSSLSASVGDRVTITCRASQDISNYLNWYQQKPGKVPKLLIYYTSRLHSGVPSRFSGSGSGTDFTLTISSLQPEDVATYYCVQYAQFPLTFGCGTKVEIKRTVAAPSVFIFPPSDEQLKSGTASVVCLLNNFYPREAKVQWKVDNALQSGNSQESVTEQDSKDSTYSLESTLTLSKADYEKHKVYACEVTHQGLSSPVTKSFNRGEC chain 4: QTVVTQEPSLTVSPGGTVTITCGSSTGAVTSGNYPNWIQKKPGQAPRGLIGGTKFLAPGTPARFSGSLEGGKAALTLSGVQPEDEAEYYCVLYYSNRWVFGSGTKLTVLGQPKAAPSVTLFPPSSEELQANKATLVCLISDFYPGAVTVAWKADSSPVKAGVETTTPSKQSNNKYAAKSYLSLTPEQWKSHRSYSCQVTHEGSTVEKTVAPTECS |
| 11.6 | 0.024 | 0.89 | 0.024 | 0.27 | 0.002 | 0.58 | 0.002 | MSLN-CDH3 T-cell engager molecule 6 (example to FIG. 2L) (bispecific antibody, human IgG1, kappa, lambda, N297G) chain 1: not shown chain 2: EVQLVESGGGLVQPGGSLKLSCAASGFTFNKYAMNWVRQAPGKGMEWVARIRSKYNNYATYYADAVKDRFTISRDDSKNTLYLQMNNLKTEDTAVYYCVRAGNFGSSYISYFAYWGQGTLVTVSSASTKGPSVFPLAPSSKSTSGGTAALGCLVKDYFPEPVTVSWNSGALTSGVHTFPAVLQSSGLYSLESVVTVPSSSLGTQTYICNVNHKPSNTKVDKKVEPKSCDKTHTCPPCPAPELLGGPSVFLFPPKPKDTLMISRTPEVTCVVVDVSHEDPEVKFNWYVDGVEVHNAKTKPCEEQYGSTYRCVSVLTVLHQDWLNGKEYKCKVSNKALPAPIEKTISKAKGQPREPQVYTLPPSRKEMTKNQVSLTCLVKGFYPSDIAVEWESNGQPENNYKTTPPVLKSDGSFFLYSKLTVDKSRWQQGNVFSCSVMHEALHNHYTQKSLSLSPGKGGGGQVQLQESGPGLVKPSETLSLTCTVSGGSISSSSYFWGWIRQPPGKCLEWIGNIYYSGSSNYNPSLKSRVTISVDTSKNQFSLKLSSVTAADTAVYYCARLPRGDRDAFDIWGQGTMVTVSSGGGGQGGGGQGGGGQEIVMTQSPSSLSASVGDRVTITCRASQGISNYLAWYQQKPGKVPKLLIYAASTLQSGVPSRFSGSGSGTDFTLTISSLQPEDFATYYCQQSYSTPFTFGCGTKVEIKSGGGGQEVQLVESGGGLVQPGGSLKLSCAASGFTFNKYAMNWVRQAPGKGMEWVARIRSKYNNYATYYADAVKDRFTISRDDSKNTLYLQMNNLKTEDTAVYYCVRAGNFGSSYISYFAYWGQGTLVTVSSGGGGQGGGGQGGGGQQTVVTQEPSLTVSPGGTVTITCGSSTGAVTSGNYPNWIQKKPGQAPRGLIGGTKFLAPGTPARFSGSLEGGKAALTLSGVQPEDEAEYYCVLYYSNRWVFGSGTKLTVL chain 3: EIQMTQSPSSLSASVGDRVTITCRASQDISNYLNWYQQKPGKVPKLLIYYTSRLHSGVPSRFSGSGSGTDFTLTISSLQPEDVATYYCVQYAQFPLTFGCGTKVEIKRTVAAPSVFIFPPSDEQLKSGTASVVCLLNNFYPREAKVQWKVDNALQSGNSQESVTEQDSKDSTYSLESTLTLSKADYEKHKVYACEVTHQGLSSPVTKSFNRGEC chain 4: QTVVTQEPSLTVSPGGTVTITCGSSTGAVTSGNYPNWIQKKPGQAPRGLIGGTKFLAPGTPARFSGSLEGGKAALTLSGVQPEDEAEYYCVLYYSNRWVFGSGTKLTVLGQPKAAPSVTLFPPSSEELQANKATLVCLISDFYPGAVTVAWKADSSPVKAGVETTTPSKQSNNKYAAKSYLSLTPEQWKSHRSYSCQVTHEGSTVEKTVAPTECS |
